From PMC7619190 (2026)
Where no end group is shown, it is not given here. [ ]: non-standard residue; d: D form. pY = N[C@@H](Cc1ccc(OP(=O)(O)O)cc1)C(=O)O

Biological target: human SRC SH2 domain (Gln147-Lys252), wild type (human, UniProt P12931-1 147-252)
Assay: ITC; SH2 pretreated with 1 mM TCEP

B1: optimized SRC binding phosphopeptide (EPQpYEEIP) (peptide)
peptide: EPQ[pY]EEIP
  Kd: 293 nM
